Test results from patent publication US20220348970A1, “METHODS AND COMPOSITIONS FOR 3-HYDROXYPROPIONATE PRODUCTION” (The Regents of the University of California, priority 2017, published 2022).

Columns and labels:
[1] = molecular target: Actinobacillus succinogenes PCK (phosphoenolpyruvate carboxykinase), SEQ ID NO: 163 (Actinobacillus succinogenes, UniProt A6VKV4); assay: Kinetics of PEPCK against PEP (carboxylation direction, malate dehydrogenase/NADH coupled); assay type: biochemical; settings: 100 mM PBS buffer (pH 6.5), 1.25 mM ADP, 50 mM KHCO3, 2 mM MnCl2
Actinobacillus succinogenes PCK (phosphoenolpyruvate carboxykinase), SEQ ID NO: 163, sequence (A6VKV4 whole entry): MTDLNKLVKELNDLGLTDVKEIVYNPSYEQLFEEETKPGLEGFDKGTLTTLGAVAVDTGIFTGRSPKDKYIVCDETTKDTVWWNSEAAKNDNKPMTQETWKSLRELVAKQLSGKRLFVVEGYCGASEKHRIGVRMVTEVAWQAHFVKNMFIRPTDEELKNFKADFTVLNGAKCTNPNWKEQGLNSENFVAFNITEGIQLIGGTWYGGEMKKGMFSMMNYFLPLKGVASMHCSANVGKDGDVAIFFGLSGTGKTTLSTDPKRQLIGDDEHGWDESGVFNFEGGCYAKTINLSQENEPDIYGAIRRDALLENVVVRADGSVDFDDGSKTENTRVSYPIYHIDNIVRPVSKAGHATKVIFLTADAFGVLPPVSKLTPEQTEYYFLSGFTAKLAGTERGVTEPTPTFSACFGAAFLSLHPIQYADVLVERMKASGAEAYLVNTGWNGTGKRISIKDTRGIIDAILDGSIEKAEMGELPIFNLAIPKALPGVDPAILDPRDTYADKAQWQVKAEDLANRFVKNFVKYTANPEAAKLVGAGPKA
Procedure: (§1) 5 genes encoding candidate PEPCKs were synthesized and cloned into expression vectors. After obtaining solubly expressed proteins, they were used for activity characterization. Each enzyme was assayed in the phosphenolpyruvate carboxylation direction in a solution containing 100 mM PBS buffer (pH 6.5), 0.20 mM NADH, 1.25 mM ADP, 2.5 mM PEP, 50 mM KHCO3, 2 mM MnCl2, and 4 units malate dehydrogenase.

[2] = substrate: NC(=O)c1ccc[n+]([C@@H]2O[C@H](COP(=O)([O-])OP(=O)(O)OC[C@H]3O[C@@H](n4cnc5c(N)ncnc54)[C@H](O)[C@@H]3O)[C@@H](O)[C@H]2O)c1; assay: 3-HPDH activity towards 3-HP (reverse reaction) using NAD+; assay type: biochemical; settings: other: activity towards 3-HP, pH 7.2, 21° C.
Procedure: (§2) Candidate ADHs were expressed in E. coli, and soluble expression levels were analyzed. 3-HP dehydrogenase (3-HPDH) activity of each was tested based on the reverse reaction, from 3-HP to 3-oxopropanoate. The assay was performed in a 96-well half-area plate. Each reaction contained a final concentration of 1 mM NADP^+/NAD^+ in reaction buffer (100 mM Hepes, 100 mM NaCl, 10% glycerol, pH 7.2) and ADHs. A range of substrates from 0.1 mM-5 mM was used to perform steady-state kinetics measurement over a period of an hour. Absorbance readings were taken every 1 min at OD 340 at 21° C. for 60 min. using the Synergy™ H1 Hybrid Multi-Mode Microplate Reader (Biotek). Kinetic parameters (kcat and KM) were determined by fitting initial velocity versus substrate concentration data to the Michaelis-Menten equation.

[3] = substrate: NC(=O)c1ccc[n+]([C@@H]2O[C@H](COP(=O)([O-])OP(=O)(O)OC[C@H]3O[C@@H](n4cnc5c(N)ncnc54)[C@H](O)[C@@H]3O)[C@@H](O)[C@H]2O)c1; assay: as above; assay type: biochemical, Metallosphaera sedula; settings: other: activity towards 3-HP, pH 7.2, 21° C.
Procedure: as §2

[4] = substrate: CC(=O)C(=O)O; assay: Steady-state kinetics of 4COK decarboxylase on pyruvate and oxaloacetate (ADH/NADPH coupled, 340 nm); assay type: biochemical, Gluconacetobacter diazotrophicus; settings: other: pH 7.2, 21° C., 0.1 mM-5 mM substrate
Procedure: Overnight cultures of BLR cells suspended in a 2 mL volume were transformed with a pet29b+ plasmid (encoding polypeptides of interest with a C-terminal His-tag) and grown in Terrific Broth with 50 μg/ml kanamycin. Cultures were diluted 1:1.000 in 500 ml of Terrific Broth with 1 mM MgSO4, 1% glucose and 50 μg/ml antibiotic and then grown at 37° C. for 24 hours. Cultures were pelleted down at 4,700 RPM for 10 minutes and resuspended in auto-induction media (LB broth, 1 mM MgSO4, 0.1 mM TPP, 1×NPS and 1×5052) for induction at 18° C. for 20 hours. At the end of induction, cells were centrifuged, the supernatant was removed and cells were resuspended in 40 mL lysis buffer (100 mM HEPES, pH 7.5, 100 mM NaCl, 10% glycerol, 0.1 mM TPP, 1 mM MgSO4, 10 mM Imidazole, 1 mM TCEP) and 1 mM phenylmethylsulphonyl fluoride. The cell lysate suspension was sonicated for 2 min and followed by centrifugation at 4,700 RPM. The supernatant was loaded onto a gravity flow column with 500 uL Cobalt beads and was washed with 15 mL of wash buffer five times. Proteins were eluted with […] of elution buffer (100 mM HEPES, pH 7.5, 100 mM NaCl, 10% glycerol, 0.1 mM TPP, 1 mM MgSO4, 200 mM Imidazole and 1 mM TCEP). Protein concentrations were determined using a Synergy H1 spectrophotometer (Biotek) by measuring absorbance at 280 nm using calculated extinction coefficients.
All substrates were dissolved in MilliQ H2O and the pH was adjusted to 7.2 as necessary. Activity for oxaloacetate, pyruvate, and 2-ketoisovalerate was measured at a 1 mM substrate concentration. The assay was performed in a 96-well half-area plate. […] Absorbance readings were taken at one minute intervals at 340 nm at 21° C. for 60 minutes using the Synergy H1 spectrophotometer (Biotek). Kinetic parameters (ka and Ks1) were determined by fitting initial velocity versus substrate concentration data to the Michaelis-Menten equation. […]

[5] = substrate: O=C(O)CC(=O)C(=O)O; assay: OAADC kinetics of A0A0J7KM68 on oxaloacetate; assay type: biochemical; settings: other: oxaloacetate, pH 7.2, 21° C.
Procedure: (§3) All substrates were dissolved in MilliQ H2O and the pH was adjusted to 7.2 as necessary. Activity for oxaloacetate, pyruvate, and 2-ketoisovalerate was measured at a 1 mM substrate concentration. The assay was performed in a 96-well half-area plate. Each reaction contained reaction buffer (100 mM HEPES, 100 mM NaCl, 10% glycerol, pH 7.2), ADH (Sigma-Aldrich, A7011, 100 U/mL for pyruvate, 600 U/mL for oxaloacetate, and 600 U/mL for 2-ketoisovalerate), and a final concentration of 0.5 mM NADPH, 0.1 mM TPP, and 1 mM MgSO4. A range of substrate concentrations (0.1 mM-5 mM) were uSEQ to perform steady-state kinetics measurement over a period of one hour. Absorbance readings were taken at one minute intervals at 340 nm at 21° C. for 60 minutes using the Synergy H1 spectrophotometer (Biotek). Kinetic parameters (ka and Ks1) were determined by fitting initial velocity versus substrate concentration data to the Michaelis-Menten equation.
(§4) A second round of genome mining was conducted as described in Example 1, except using the 4COK sequence as the input. Genes encoding candidate OAADCs were synthesized and expressed in E. coli for further characterization. OAADC activity was assayed as described in Example 1.

[6] = substrate: O=C(O)CC(=O)C(=O)O; assay: OAADC kinetics of 5EUJ on oxaloacetate; assay type: biochemical; settings: other: oxaloacetate, pH 7.2, 21° C.
Procedure: as §3, §4

[7] = substrate: C=C(OP(=O)(O)O)C(=O)O; assay: Kinetics of PEPCK against PEP (carboxylation direction, malate dehydrogenase/NADH coupled); assay type: biochemical, E. coli; settings: other: PEP, 100 mM PBS buffer (pH 6.5), 1.25 mM ADP, 50 mM KHCO3, 2 mM MnCl2
Procedure: as §1

Molecule: C=C(OP(=O)(O)O)C(=O)O [PEP, phosphoenolpyruvate]
- Km [1]: 169 µM
- kcat [1]: 2.875 s⁻¹

B1: 3-HPDH 2CVZ, SEQ ID NO: 159 (Thermus thermophilus HB8) (protein)
chain: MEKVAFIGLGAMGYPMAGHLARRFPTLVWNRTFEKALRHQEEFGSEAVPLERVAEARVIFTCLPTTREVYEVAEALYPYLREGTYWVDATSGEPEASRRLAERLREKGVTYLDAPVSGGTSGAEAGTLTVMLGGPEEAVERVRPFLAYAKKVVHVGPVGAGHAVKAINNALLAVNLWAAGEGLLALVKQGVSAEKALEVINASSGRSNATENLIPQRVLTRAFPKTFALGLLVKDLGIAMGVLDGEKAPSPLLRLAREVYEMAKRELGPDADHVEALRLLERWGGVEIR
notes: PDB 2CVZ is from strain HB8 (ATCC 27634 / DSM 579)
- Km [2]: 420 µM

B2: 3-HPDH A4YI81, SEQ ID NO: 154 (Metallosphaera sedula DSM 5348) (protein)
chain: MTEKVSVVGAGVIGVGWATLFASKGYSVSLYTEKKETLDKGIEKLRNYVQVMKNNSQITEDVNTVISRVSPTTNLDEAVRGANFVIEAVIEDYDAKKKIFGYLDSVLDKEVILASSTSGLLITEVQKAMSKHPERAVIAHPWNPPHLLPLVEIVPGEKTSMEVVERTKSLMEKLDRIVVVLKKEIPGFIGNRLAFALFREAVYLVDEGVATVEDIDKVMTAAIGLRWAFMGPFLTYHLGGGEGGLEYFFNRGFGYGANEWMHTLAKYDKFPYTGVTKAIQQMKEYSFIKGKTFQEISKWRDEKLLKVYKLVWEK
notes: UniProt strain ATCC 51363 / DSM 5348 / TH2
- Km [3]: 650 µM

B3: pyruvate decarboxylase from Gluconacetobacter diazotrophicus (4COK), SEQ ID NO: 1 (Gluconacetobacter diazotrophicus PA1 5) (protein)
chain: MTYTVGRYLADRLAQIGLKHHFAVAGDYNLVLLDQLLLNTDMQQIYCSNELNCGFSAEGYARANGAAAAIVTFSVGALSAFNALGGAYAENLPVILISGAPNANDHGTGHILHHTLGTTDYGYQLEMARHITCAAESIVAAEDAPAKIDHVIRTALREKKPAYLEIACNVAGAPCVRPGGIDALLSPPAPDEASLKAAVDAALAFIEQRGSVTMLVGSRIRAAGAQAQAVALADALGCAVTTMAAAKSFFPEDHPGYRGHYWGEVSSPGAQQAVEGADGVICLAPVFNDYATVGWSAWPKGDNVMLVERHAVTVGGVAYAGIDMRDFLTRLAAHTVRRDATARGGAYVTPQTPAAAPTAPLNNAEMARQIGALLTPRTTLTAETGDSWFNAVRMKLPHGARVELEMQWGHIGWSVPAAFGNALAAPERQHVLMVGDGSFQLTAQEVAQMIRHDLPVIIFLINNHGYTIEVMIHDGPYNNVKNWDYAGLMEVFNAGEGNGLGLRARTGGELAAAIEQARANRNGPTLIECTLDRDDCTQELVTWGKRVAAANARPPRAG
notes: likely strain PAl 5 (ATCC 49037 / DSM 5601)
- Km [4]: 1490 ± 430 µM
- kcat [4]: 8.25 ± 1.87 s⁻¹
- kcat/Km [4]: 5532 ± 39.4 M⁻¹ s⁻¹

B4: OAADC A0A0J7KM68_LASNI, SEQ ID NO: 145 (Lasius niger) (protein)
chain: MSYTVGQYLADRLVQIGLKDHFAIAGDYNLVLLDQFLKNKNWNQIYDCNELNCGFAAEGYARANGAAACVVTYTVGAISAMNSALAGAYAENLPVLCISGAPNCNDYGSGRILHHTIGKPEFTQQLDMVKHVTCAAESVVQASEAPAKIDHVIRTMLLEQRPAYIDIACNISGLECPRPGPIEDLLPQYAADNKSLTSAIDAIAKKIEASQKVTLYVGPKVRPGKAKEASVKLADALGCAVTVGPASMSFFPAKHPGFRGTYWGIVSTGDANKVVEEAETLIVLGPNWNDYATVGWKAWPKGPRVVTIDEKAAQVDGQVFSGLSMKALVEGLAKKVSKKPATAEGTKAPHFEYPVAKPDAKLTNAEMARQINAILDDNTTLHAETGDSWFNVKNMNWPNGLRIESEMQYGHIGWSIPSGFGGAIGSPERKHIIMCGDGSFQLTCQEVSQMIRYKLPVTIFLIDNHGYGIEIAIHDGPYNYIQNWNFTKLMEVFNGEGEECPYSHNKNGKSGLGLKATTPAELADAIKQAEANKEGPTLIQVVIDQDDCTKDLLTWGKEVAKTNARSPVVTDKAGGSG
- Km [5]: 2389 µM
- kcat [5]: 6.25 s⁻¹
- kcat/Km [5]: 2620 ± 224 M⁻¹ s⁻¹

B5: OAADC 5EUJ, SEQ ID NO: 146 (Zymobacter palmae) (protein)
chain: MYTVGMYLAERLAQIGLKHHFAVAGDYNLVLLDQLLLNKDMEQVYCCNELNCGFSAEGYARARGAAAAIVTFSVGAISAMNAIGGAYAENLPVILISGSPNTNDYGTGHILHHTIGTTDYNYQLEMVKHVTCAAESIVSAEEAPAKIDHVIRTALRERKPAYLEIACNVAGAECVRPGPINSLLRELEVDQTSVTAAVDAAVEWLQDRQNVVMLVGSKLRAAAAEKQAVALADRLGCAVTIMAAAKGFFPEDHPNFRGLYWGEVSSEGAQELVENADAILCLAPVFNDYATVGWNSWPKGDNVMVMDTDRVTFAGQSFEGLSLSTFAAALAEKAPSRPATTQGTQAPVLGIEAAEPNAPLTNDEMTRQIQSLITSDTTLTAETGDSWFNASRMPIPGGARVELEMQWGHIGWSVPSAFGNAVGSPERRHIMMVGDGSFQLTAQEVAQMIRYEIPVIIFLINNRGYVIEIAIHDGPYNYIKNWNYAGLIDVFNDEDGHGLGLKASTGAELEGAIKKALDNRRGPTLIECNIAQDDCTETLIAWGKRVAATNSRKPQAGGSG
- Km [6]: 6667 µM
- kcat [6]: 28.8 s⁻¹
- kcat/Km [6]: 4320 ± 321 M⁻¹ s⁻¹

B6: E. coli PCK (phosphoenolpyruvate carboxykinase, PCKA_Ecoli), SEQ ID NO: 162 (Escherichia coli K-12) (protein)
chain: MRVNNGLTPQELEAYGISDVHDIVYNPSYDLLYQEELDPSLTGYERGVLTNLGAVAVDTGIFTGRSPKDKYIVRDDTTRDTFWWADKGKGKNDNKPLSPETWQHLKGLVTRQLSGKRLFVVDAFCGANPDTRLSVRFITEVAWQAHFVKNMFIRPSDEELAGFKPDFIVMNGAKCTNPQWKEQGLNSENFVAFNLTERMQLIGGTWYGGEMKKGMFSMMNYLLPLKGIASMHCSANVGEKGDVAVFFGLSGTGKTTLSTDPKRRLIGDDEHGWDDDGVFNFEGGCYAKTIKLSKEAEPEIYNAIRRDALLENVTVREDGTIDFDDGSKTENTRVSYPIYHIDNIVKPVSKAGHATKVIFLTADAFGVLPPVSRLTADQTQYHFLSGFTAKLAGTERGITEPTPTFSACFGAAFLSLHPTQYAEVLVKRMQAAGAQAYLVNTGWNGTGKRISIKDTRAIIDAILNGSLDNAETFTLPMFNLAIPTELPGVDTKILDPRNTYASPEQWQEKAETLAKLFIDNFDKYTDTPAGAALVAAGPKL
- Km [7]: 190.5 µM
- kcat [7]: 3.42 s⁻¹
- kcat/Km [7]: 18000 M⁻¹ s⁻¹
